Test results as given in the supplement of paper PMC6379048.
pKd: −log10 of the molar value.

Tests used:
Experiment in all cases: Kd (EC50 corrected by depletion factor)
CELF2 = biological target: T1, CELF2 (UniProt O95319)
T1 sequence: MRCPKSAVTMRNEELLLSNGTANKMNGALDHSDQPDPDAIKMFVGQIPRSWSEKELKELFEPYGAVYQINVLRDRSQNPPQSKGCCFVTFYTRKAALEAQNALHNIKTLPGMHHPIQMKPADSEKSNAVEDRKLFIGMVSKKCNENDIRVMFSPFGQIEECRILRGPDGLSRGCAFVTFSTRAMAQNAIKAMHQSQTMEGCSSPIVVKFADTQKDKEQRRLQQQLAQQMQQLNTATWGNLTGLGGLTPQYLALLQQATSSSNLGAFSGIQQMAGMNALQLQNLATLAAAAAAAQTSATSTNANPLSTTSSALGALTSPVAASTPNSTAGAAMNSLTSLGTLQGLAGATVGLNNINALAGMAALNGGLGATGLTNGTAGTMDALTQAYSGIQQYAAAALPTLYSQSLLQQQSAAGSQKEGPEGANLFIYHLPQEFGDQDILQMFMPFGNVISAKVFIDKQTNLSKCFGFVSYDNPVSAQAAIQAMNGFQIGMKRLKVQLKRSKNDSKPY
Experimental: (§1)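 Competition-binding assay: HEK293-FT cell lysate (2.5 mg protein) pre-incubated 1 h at 4°C with free motif-containing RNA oligos (0 to 30 µM, 12 doses), then pulled down with the same 5'-amino-C6 RNA oligos immobilised on NHS-Sepharose beads (30 min, 4°C). Bound proteins were quantified by label-free LC-MS/MS and normalised to the water control. EC50 came from a four-parameter log-logistic fit; Kd = EC50 x depletion factor. Random/reversed control probes are dropped.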

XRN2 = biological target: T2, XRN2 (UniProt Q9H0D6)
T2 sequence: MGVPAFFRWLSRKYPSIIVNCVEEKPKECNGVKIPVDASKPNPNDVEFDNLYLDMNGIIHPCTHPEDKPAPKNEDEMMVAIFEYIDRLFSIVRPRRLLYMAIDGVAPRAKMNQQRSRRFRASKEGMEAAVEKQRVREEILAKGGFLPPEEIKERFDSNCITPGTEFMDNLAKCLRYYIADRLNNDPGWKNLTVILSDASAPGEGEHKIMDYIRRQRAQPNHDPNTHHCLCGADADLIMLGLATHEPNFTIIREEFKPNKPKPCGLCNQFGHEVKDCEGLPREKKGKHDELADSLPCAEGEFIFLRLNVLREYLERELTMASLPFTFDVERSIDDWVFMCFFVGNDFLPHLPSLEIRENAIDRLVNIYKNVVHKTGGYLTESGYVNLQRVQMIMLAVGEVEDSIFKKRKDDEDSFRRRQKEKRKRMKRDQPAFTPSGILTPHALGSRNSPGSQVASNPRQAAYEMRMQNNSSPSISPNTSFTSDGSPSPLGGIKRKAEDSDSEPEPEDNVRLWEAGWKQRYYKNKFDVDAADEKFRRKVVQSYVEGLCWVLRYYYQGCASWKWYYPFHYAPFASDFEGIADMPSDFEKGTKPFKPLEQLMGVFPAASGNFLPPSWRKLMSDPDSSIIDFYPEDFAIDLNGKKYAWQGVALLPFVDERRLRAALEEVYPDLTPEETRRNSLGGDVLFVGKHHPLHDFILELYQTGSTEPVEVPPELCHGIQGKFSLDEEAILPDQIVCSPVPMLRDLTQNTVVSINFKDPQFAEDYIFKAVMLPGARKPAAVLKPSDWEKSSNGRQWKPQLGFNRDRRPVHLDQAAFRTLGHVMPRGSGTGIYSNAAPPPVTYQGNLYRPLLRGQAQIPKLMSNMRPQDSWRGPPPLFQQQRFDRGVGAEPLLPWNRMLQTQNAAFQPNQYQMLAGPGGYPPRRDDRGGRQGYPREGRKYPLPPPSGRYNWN
Experimental: as §1

ZCCHC8 = biological target: T3, ZCCHC8 (UniProt Q6NZY4)
T3 sequence: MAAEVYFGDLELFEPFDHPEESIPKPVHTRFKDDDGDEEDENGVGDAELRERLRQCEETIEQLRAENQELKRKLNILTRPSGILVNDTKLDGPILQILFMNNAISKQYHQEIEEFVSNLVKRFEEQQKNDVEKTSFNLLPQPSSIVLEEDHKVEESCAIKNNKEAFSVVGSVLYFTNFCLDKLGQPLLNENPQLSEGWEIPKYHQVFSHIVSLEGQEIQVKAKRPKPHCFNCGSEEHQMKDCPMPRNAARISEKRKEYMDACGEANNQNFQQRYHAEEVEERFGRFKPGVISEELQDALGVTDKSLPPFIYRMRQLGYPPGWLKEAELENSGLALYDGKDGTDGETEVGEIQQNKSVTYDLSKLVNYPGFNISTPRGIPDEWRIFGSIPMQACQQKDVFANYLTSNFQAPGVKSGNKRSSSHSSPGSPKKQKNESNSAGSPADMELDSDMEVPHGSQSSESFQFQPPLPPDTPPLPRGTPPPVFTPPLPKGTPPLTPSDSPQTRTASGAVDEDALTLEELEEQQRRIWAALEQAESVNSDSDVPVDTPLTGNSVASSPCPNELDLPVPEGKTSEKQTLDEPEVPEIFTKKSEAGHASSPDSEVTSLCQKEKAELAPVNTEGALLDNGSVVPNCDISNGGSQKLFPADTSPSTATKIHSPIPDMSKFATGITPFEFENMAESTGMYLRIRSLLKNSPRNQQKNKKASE
Experimental: as §1

Sequence: CUGUCCU
- pKd (CELF2): 6.02
- pKd (XRN2): 7.09
- pKd (ZCCHC8): 5.76

Sequence: AAUAAA
- pKd (CELF2): 6.94
- pKd (XRN2): 6.45
- pKd (ZCCHC8): 6.72

Sequence: UAUUUAU
- pKd (CELF2): 6.55
- pKd (XRN2): 6.74
- pKd (ZCCHC8): 6.70
